Non-standard residues stand in square brackets, D forms with d. pS = N[C@@H](COP(=O)(O)O)C(=O)O
Molecular target: T1, 14-3-3σΔC (human, UniProt P31947 1-231)
T1 sequence (looked up): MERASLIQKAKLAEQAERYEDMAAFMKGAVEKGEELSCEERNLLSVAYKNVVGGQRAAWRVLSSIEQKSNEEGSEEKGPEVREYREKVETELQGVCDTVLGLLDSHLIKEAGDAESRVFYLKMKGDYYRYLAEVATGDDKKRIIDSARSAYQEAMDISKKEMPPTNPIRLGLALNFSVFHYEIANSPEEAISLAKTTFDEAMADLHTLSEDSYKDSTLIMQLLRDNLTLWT
Test: crystal structure

B1: Ataxin-1 pS776 peptide (AcNH-RKRRWpSAPESR-NH2) (peptide)
peptide: Ac-RKRRW[pS]APESR-NH2
SMILES: CC(=O)N[C@@H](CCCNC(=N)N)C(=O)N[C@@H](CCCCN)C(=O)N[C@@H](CCCNC(=N)N)C(=O)N[C@@H](CCCNC(=N)N)C(=O)N[C@@H](Cc1c[nH]c2ccccc12)C(=O)N[C@@H](COP(=O)(O)O)C(=O)N[C@@H](C)C(=O)N1CCC[C@H]1C(=O)N[C@@H](CCC(=O)O)C(=O)N[C@@H](CO)C(=O)N[C@@H](CCCNC(=N)N)C(N)=O
B1: binds.

— publication PMC8505757 (Journal of Molecular Biology, 2021)
